# From paper PMC6200708, “Tannerella forsythia Tfo belongs to Porphyromonas gingivalis HmuY-like family of proteins but differs in heme-binding properties” (Bioscience Reports, 2018)
# What was measured:
# [1] = target: Tannerella forsythia ATCC 43037 Tfo protein (Tannerella forsythia ATCC 43037); assay: SEC; holo protein (with heme), under reducing conditions
# HmuY = HmuY (Porphyromonas gingivalis, UniProt A2BCY8); assay: UV-visible difference-spectrum heme titration of purified protein, one-site model; CD and MCD; format: binding
# [2] = target: Porphyromonas gingivalis A7436 HmuY protein (Porphyromonas gingivalis A7436); assay: SEC; holo protein (with heme), under oxidizing conditions
# [3] = target: Porphyromonas gingivalis A7436 HmuY protein (Porphyromonas gingivalis A7436); assay: SDS/PAGE; purified protein run on SDS/PAGE; samples solubilized at 37°C for 1 h or at 100°C for 5 min
compound,measurement,setting,value
Tannerella forsythia ATCC 43037 Tfo protein (natural protein),stoichiometry N,[1],2
C=CC1=C(C)C2=Cc3c(C=C)c(C)c4[n]3[Fe][n]3c(c(C)c(CCC(=O)O)c3=CC3=NC(=C4)C(C)=C3CCC(=O)O)=CC1=N2 [heme],Kd,HmuY,< 1 nM
Porphyromonas gingivalis A7436 HmuY protein (natural protein),stoichiometry N,[2],2
same,stoichiometry N,[3],2
